The text below walks through data of article PMC5624674 (2017).

First the molecules themselves.
B1: λCI-ZipACTD (residues 186–328) [E. coli] / α-FtsZ fusion protein (wild-type E. coli FtsZ) [E. coli] (parent complex)
chain 1: not shown
chain 2: MFEPMELTNDAVIKVIGVGGGGGNAVEHMVRERIEGVEFFAVNTDAQALRKTAVGQTIQIGSGITKGLGAGANPEVGRNAADEDRDALRAALEGADMVFIAAGMGGGTGTGAAPVVAEVAKDLGILTVAVVTKPFNFEGKKRMAFAEQGITELSKHVDSLITIPNDKLLKVLGRGISLLDAFGAANDVLKGAVQGIAELITRPGLMNVDFADVRTVMSEMGYAMMGSGVASGEDRAEEAAEMAISSPLLEDIDLSGARGVLVNITAGFDLRLDEFETVGNTIRAFASDNATVVIGTSLDPDMNDELRVTVVATGIGMDKRPEITLVTNKQVQQPVMDRYQQHGMAPLTQEQKPVAKVVNDNAPQTAKEPDYLDIPAFLRKQAD

In this assay the parent is B1. Nature of the assay: bacterial two-hybrid β-galactosidase assay; 25 μM IPTG; parent: 720; read off a plot.
With chain 2 L169P, the response is around 790 Miller Units. With chain 2 S177P, the response is around 790 Miller Units. To chain 2 F182S belongs around 770 Miller Units; to chain 2 D180N, around 770 Miller Units. As for chain 2 L179R, the response was around 880 Miller Units.
